T1: mouse VISTA-Fc (mouse) (UniProt Q9D659)
T1 sequence (looked up): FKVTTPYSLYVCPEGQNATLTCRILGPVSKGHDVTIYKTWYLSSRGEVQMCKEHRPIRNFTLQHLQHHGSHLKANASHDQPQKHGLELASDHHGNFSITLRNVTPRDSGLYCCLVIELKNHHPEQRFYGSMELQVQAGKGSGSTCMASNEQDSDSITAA

B1: 1A12 monoclonal scFv phage (scFv, V domains shown)
VH: QMQLVESGGGLVEPGRSLRLSCTTSGFSFHDYTMYWVRQVPGKGLEWVSLISWDGTITFYADPVRGRFTISRDNSKNSLYLQMNSLRAEDTAVYYCAKEDRYDYYSGAFDIWGQGTVVTVSS
VL: QSALTQPRSVSGSPGQSVTISCTGTSSDVGGYDYVSWYQQHPGKAPKLILNDVNKRPSGVPDRFSGSKSGNTASLTISGLQPDDEADYYCSSFAGSNTLRVFGGGTKLTVLG
B2: 3C5 monoclonal scFv phage (scFv, V domains shown)
VH: QVQLVQSGAEVKKPGASVKLSCKASGYTFSSYWMHWVRQAPGQRLEWMGEINPGNGHTNYNEKFKSRVTITVDKSASTAYMELSSLRSEDTAVYYCAKDIAYYDFWSGDAFDLWGQGTMVTVSS
VL: SYELTQPLSVSVSPGQTASITCSGDKLGNKYASWYQQKPGQSPVLVIYQDNKRPSGIPERFSGSNSGNTATLTISGTQATDEADYYCQTWDRSTGVFGTGTKVTVLG

Biological target: T1, mouse VISTA-Fc (mouse)
Test: monoclonal scFv phage ELISA, plate coated with 1 ug/ml VISTA-Fc, anti-M13-HRP

Binder | OD
B1 | 0.08 OD
B2 | 0.106 OD
